Drawing on patent US8703143, this text covers OD for 2 substances.

Holding throughout (experiment): ELISA on coated antigen, background subtracted
Test [1] has as its target fibronectin purified from the conditioned medium of the SV40-transformed cell line WI38VA13 (human) (UniProt P02751).
In test [2] the target is human plasma fibronectin (human) (UniProt P02751).
Test [3] deals with large isoform of tenascin-C (UniProt P24821).
In test [4] the target is native FN 110 kD (B-) thermolysin fragment (human) (UniProt P02751).
Test [5] deals with native FN 120 kD (B+) thermolysin fragment (human) (UniProt P02751).
Test [6] has as its target recombinant ED-B domain of human fibronectin with a carboxy terminal hexahistidine tag (human) (UniProt P02751).
For test [7], the target named is recombinant FN domain 6 (human) (UniProt P02751).
The target in test [8] is recombinant FN fragment 789 (human) (UniProt P02751).
Test [9] deals with recombinant FN fragment 7B89 (human) (UniProt P02751).
Chain of recombinant FN fragment 7B89 (human) (P02751 other isoform, or with tags, fused parts or gaps limits assumed): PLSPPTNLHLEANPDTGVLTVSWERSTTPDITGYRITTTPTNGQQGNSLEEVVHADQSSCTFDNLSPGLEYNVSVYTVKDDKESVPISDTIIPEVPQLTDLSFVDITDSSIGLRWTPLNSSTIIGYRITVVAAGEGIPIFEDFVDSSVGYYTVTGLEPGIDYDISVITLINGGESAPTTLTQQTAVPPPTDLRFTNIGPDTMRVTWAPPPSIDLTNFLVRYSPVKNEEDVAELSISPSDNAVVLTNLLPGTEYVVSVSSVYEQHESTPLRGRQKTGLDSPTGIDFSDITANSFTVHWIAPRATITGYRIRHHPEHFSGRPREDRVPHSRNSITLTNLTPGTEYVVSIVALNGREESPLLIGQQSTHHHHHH

Chain of native FN 110 kD (B-) thermolysin fragment (human) (P02751 other isoform, or with tags, fused parts or gaps limits assumed): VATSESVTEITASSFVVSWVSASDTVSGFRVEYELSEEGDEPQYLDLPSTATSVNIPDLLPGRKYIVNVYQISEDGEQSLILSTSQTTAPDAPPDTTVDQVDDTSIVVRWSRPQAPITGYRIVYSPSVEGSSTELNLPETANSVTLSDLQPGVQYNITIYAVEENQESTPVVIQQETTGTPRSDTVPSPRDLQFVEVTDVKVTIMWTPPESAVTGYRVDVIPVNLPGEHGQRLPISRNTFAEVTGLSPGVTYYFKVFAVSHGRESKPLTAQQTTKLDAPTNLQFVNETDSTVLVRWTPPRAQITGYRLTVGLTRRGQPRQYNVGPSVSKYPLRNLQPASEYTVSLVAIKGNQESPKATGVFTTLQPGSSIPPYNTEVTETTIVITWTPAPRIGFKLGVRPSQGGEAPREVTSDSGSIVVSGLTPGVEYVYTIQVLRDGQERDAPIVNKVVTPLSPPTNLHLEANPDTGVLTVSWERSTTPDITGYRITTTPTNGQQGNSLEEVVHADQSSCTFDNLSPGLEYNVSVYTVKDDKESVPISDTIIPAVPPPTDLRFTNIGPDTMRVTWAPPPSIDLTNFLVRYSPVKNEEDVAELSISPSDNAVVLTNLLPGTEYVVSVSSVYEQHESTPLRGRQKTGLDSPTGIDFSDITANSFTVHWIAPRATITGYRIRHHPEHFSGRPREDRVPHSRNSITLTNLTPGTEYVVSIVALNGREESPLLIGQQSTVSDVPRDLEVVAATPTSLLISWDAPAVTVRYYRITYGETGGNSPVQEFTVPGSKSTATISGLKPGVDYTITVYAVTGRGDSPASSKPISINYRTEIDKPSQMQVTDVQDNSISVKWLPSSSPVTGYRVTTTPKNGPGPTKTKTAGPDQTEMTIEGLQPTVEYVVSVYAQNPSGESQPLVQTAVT
Chain of large isoform of tenascin-C (P24821 23-2201): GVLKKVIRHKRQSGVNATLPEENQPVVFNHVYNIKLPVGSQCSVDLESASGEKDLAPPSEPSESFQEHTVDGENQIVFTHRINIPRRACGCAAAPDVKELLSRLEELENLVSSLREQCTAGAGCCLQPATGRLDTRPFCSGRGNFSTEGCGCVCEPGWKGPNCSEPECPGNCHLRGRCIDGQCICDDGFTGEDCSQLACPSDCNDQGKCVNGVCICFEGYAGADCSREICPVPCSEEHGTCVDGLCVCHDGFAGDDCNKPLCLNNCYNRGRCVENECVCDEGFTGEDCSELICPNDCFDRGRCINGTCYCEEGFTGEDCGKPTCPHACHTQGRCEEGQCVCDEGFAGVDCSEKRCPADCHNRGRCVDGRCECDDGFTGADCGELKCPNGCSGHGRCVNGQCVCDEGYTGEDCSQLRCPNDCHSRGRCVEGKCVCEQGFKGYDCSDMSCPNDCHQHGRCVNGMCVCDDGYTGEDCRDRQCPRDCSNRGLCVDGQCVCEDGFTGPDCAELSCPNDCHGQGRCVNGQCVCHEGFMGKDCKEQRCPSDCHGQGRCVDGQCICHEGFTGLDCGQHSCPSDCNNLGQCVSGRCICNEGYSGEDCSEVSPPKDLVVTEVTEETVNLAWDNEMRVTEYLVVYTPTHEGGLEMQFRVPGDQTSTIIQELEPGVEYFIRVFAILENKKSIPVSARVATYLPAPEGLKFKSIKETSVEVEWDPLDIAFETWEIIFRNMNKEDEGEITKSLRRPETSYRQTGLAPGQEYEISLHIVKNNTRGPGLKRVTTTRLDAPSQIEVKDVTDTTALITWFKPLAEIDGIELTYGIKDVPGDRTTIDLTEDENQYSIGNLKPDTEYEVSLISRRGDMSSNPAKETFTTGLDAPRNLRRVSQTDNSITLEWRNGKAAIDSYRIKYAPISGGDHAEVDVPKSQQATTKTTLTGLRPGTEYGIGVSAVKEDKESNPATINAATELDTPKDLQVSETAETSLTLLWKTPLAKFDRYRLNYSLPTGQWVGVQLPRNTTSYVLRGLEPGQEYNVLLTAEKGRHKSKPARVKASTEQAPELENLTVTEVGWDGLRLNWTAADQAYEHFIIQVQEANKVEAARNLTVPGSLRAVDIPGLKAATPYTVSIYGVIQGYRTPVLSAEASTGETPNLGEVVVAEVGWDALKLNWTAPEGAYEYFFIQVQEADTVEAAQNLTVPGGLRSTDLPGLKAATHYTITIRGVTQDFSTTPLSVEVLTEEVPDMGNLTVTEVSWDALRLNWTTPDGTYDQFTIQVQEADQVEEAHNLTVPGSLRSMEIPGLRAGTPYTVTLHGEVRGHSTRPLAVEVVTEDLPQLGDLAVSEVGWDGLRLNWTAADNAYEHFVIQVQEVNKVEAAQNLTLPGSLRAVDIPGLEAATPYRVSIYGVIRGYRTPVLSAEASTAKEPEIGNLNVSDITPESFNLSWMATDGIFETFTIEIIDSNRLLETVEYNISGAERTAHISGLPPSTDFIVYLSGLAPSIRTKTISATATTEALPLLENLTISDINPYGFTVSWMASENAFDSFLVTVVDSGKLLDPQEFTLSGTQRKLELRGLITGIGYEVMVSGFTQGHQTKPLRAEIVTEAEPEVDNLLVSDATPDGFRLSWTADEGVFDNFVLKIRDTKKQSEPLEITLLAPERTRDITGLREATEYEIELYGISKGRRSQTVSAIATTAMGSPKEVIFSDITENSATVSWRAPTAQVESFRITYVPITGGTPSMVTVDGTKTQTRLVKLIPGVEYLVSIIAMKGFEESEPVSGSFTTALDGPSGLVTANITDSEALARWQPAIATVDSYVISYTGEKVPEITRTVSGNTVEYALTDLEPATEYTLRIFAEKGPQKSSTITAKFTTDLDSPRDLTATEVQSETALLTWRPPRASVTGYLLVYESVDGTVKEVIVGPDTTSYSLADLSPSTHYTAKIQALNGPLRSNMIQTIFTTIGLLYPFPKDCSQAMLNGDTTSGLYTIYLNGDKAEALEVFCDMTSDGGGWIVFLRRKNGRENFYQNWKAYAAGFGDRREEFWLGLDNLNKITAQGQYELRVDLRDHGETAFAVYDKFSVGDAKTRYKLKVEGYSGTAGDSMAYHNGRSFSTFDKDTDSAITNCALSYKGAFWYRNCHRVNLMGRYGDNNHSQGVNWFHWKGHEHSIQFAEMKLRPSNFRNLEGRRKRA
Chain of recombinant FN fragment 789 (human) (P02751 other isoform, or with tags, fused parts or gaps limits assumed): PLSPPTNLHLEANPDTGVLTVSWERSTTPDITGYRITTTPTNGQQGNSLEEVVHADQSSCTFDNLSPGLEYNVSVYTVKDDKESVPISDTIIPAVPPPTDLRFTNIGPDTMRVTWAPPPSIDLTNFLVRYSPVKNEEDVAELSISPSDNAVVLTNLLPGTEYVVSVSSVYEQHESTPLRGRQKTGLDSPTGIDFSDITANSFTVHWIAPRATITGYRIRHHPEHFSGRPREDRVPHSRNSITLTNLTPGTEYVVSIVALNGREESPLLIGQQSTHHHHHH
Chain of recombinant FN domain 6 (human) (P02751 other isoform, or with tags, fused parts or gaps limits assumed): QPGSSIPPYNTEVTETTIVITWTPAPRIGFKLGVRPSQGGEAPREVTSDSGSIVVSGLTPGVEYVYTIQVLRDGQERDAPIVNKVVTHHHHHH
Chain of recombinant ED-B domain of human fibronectin with a carboxy terminal hexahistidine tag (human) (P02751 other isoform, or with tags, fused parts or gaps limits assumed): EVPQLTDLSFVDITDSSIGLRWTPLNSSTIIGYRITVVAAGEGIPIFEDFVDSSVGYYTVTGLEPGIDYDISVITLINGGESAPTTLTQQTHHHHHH
Chain of native FN 120 kD (B+) thermolysin fragment (human) (P02751 722-1721 limits assumed): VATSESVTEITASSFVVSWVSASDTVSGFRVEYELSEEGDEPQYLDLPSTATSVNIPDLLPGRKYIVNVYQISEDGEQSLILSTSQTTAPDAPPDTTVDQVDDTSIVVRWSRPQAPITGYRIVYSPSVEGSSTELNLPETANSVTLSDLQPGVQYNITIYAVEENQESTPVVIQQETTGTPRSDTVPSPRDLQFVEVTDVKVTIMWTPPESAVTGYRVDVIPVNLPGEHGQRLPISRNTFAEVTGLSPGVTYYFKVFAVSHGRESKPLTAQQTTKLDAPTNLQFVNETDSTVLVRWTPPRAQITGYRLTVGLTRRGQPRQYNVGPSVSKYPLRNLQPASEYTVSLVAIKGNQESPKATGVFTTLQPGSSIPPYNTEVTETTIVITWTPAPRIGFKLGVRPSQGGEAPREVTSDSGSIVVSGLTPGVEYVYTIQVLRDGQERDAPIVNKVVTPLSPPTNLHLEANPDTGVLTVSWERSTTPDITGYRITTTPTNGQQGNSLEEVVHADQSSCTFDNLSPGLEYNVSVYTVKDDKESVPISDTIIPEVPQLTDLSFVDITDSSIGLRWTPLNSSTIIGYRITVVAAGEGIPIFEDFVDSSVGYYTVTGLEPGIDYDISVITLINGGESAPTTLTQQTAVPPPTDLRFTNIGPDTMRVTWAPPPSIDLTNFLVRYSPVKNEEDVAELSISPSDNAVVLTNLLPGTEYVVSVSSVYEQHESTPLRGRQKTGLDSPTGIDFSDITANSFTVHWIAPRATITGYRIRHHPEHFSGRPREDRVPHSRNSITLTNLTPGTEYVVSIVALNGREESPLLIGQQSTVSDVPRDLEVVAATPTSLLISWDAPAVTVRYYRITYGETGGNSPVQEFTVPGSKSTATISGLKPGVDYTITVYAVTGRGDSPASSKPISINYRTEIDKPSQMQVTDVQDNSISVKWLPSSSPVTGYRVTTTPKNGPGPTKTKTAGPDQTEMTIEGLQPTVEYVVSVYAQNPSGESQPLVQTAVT

On to mAb BC-1 (antibody), for which the OD at 405 nm worked out at 1.2 OD 405 nm in test [1]; 0.09 OD 405 nm in test [2]; 0.06 OD 405 nm in [3]; 0.05 OD 405 nm in test [4]; 1.2 OD 405 nm in test [5]; 0.15 OD 405 nm in test [6]. Besides, the OD at 405 nm in [7] stood at 0.08 OD 405 nm; in [8], 0.05 OD 405 nm; in [9], 1.02 OD 405 nm.

As for mAb IST-6 (antibody), the OD at 405 nm in [1] stood at 1.12 OD 405 nm; in test [2] it was 1.73 OD 405 nm; in test [3], 0.02 OD 405 nm; in test [4], 1.2 OD 405 nm; in [5] it was 0.02 OD 405 nm; in test [6], 0.04 OD 405 nm. In addition, the OD at 405 nm in [7] was 0.03 OD 405 nm; in test [8], 1.25 OD 405 nm; in test [9], 0.01 OD 405 nm.
